The values that follow come from PMC12229552 (Nature Communications, 2025).

The experiment deals with GST-tagged human EZH2 (human, UniProt Q15910-2 1-751). The experiment is described as follows: pull-down.

B1: 6×His-tagged human DDX1 (natural protein, UniProt Q92499-1 1-740, looked up)
chain: MAAFSEMGVMPEIAQAVEEMDWLLPTDIQAESIPLILGGGDVLMAAETGSGKTGAFSIPVIQIVYETLKDQQEGKKGKTTIKTGASVLNKWQMNPYDRGSAFAIGSDGLCCQSREVKEWHGCRATKGLMKGKHYYEVSCHDQGLCRVGWSTMQASLDLGTDKFGFGFGGTGKKSHNKQFDNYGEEFTMHDTIGCYLDIDKGHVKFSKNGKDLGLAFEIPPHMKNQALFPACVLKNAELKFNFGEEEFKFPPKDGFVALSKAPDGYIVKSQHSGNAQVTQTKFLPNAPKALIVEPSRELAEQTLNNIKQFKKYIDNPKLRELLIIGGVAARDQLSVLENGVDIVVGTPGRLDDLVSTGKLNLSQVRFLVLDEADGLLSQGYSDFINRMHNQIPQVTSDGKRLQVIVCSATLHSFDVKKLSEKIMHFPTWVDLKGEDSVPDTVHHVVVPVNPKTDRLWERLGKSHIRTDDVHAKDNTRPGANSPEMWSEAIKILKGEYAVRAIKEHKMDQAIIFCRTKIDCDNLEQYFIQQGGGPDKKGHQFSCVCLHGDRKPHERKQNLERFKKGDVRFLICTDVAARGIDIHGVPYVINVTLPDEKQNYVHRIGRVGRAERMGLAISLVATEKEKVWYHVCSSRGKGCYNTRLKEDGGCTIWYNEMQLLSEIEEHLNCTISQVEPDIKVPVDEFDGKVTYGQKRAAGGGSYKGHVDILAPTVQELAALEKEAQTSFLHLGYLPNQLFRTF
As for B1, the binding result is given as “binds”.
